Experimental data published in PMC4104026.

Target: Hfq (His6-tagged) (UniProt P0A6X3)
Assay: EMSA
Conditions: Single-RNA EMSA: 10 mM Tris-HCl pH 7.4, 0.1 mM EDTA, 10 mM NH4Cl, 10 mM NaCl, 10 mM KCl, 1 mg/ml tRNA, 4% glycerol, RT 5 min; ~40 fmol RNA (legend; Methods say …)

Chain of Hfq (His6-tagged) (P0A6X3 whole entry): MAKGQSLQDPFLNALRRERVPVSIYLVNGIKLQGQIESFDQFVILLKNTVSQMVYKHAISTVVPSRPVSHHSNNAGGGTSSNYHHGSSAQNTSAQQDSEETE

## DppA mRNA 5' 166 nt (DppASal)
  binding signal (fold higher affinity than AgvB and GcvB): 10
